Literature values in article PMC5494978.

Target: Bfd (Pseudomonas aeruginosa) (UniProt Q9HY80)
Sequence of UniProt Q9HY80 (Q9HY80 whole entry): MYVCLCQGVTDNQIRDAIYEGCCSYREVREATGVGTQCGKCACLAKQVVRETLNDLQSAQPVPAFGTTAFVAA

BfrB (from UniProt Q9HY79)
Kd: 3000 nM
